Measurements reported in paper PMC8424649 (2021).

B1: GFP-FAN1, full-length FAN1 (FAN1^FL) [human] / MLH1 (endogenous, human) [human (endogenous in iPSCs, lymphoblastoid cells, U2OS, HEK293T, MSNs, HeLa)] (parent complex)
chain 1: MMSEGKPPDKKRPRRSLSISKNKKKASNSIISCFNNAPPAKLACPVCSKMVPRYDLNRHLDEMCANNDFVQVDPGQVGLINSNVSMVDLTSVTLEDVTPKKSPPPKTNLTPGQSDSAKREVKQKISPYFKSNDVVCKNQDELRNRSVKVICLGSLASKLSRKYVKAKKSIDKDEEFAGSSPQSSKSTVVKSLIDNSSEIEDEDQILENSSQKENVFKCDSLKEECIPEHMVRGSKIMEAESQKATRECEKSALTPGFSDNAIMLFSPDFTLRNTLKSTSEDSLVKQECIKEVVEKREACHCEEVKMTVASEAKIQLSDSEAKSHSSADDASAWSNIQEAPLQDDSCLNNDIPHSIPLEQGSSCNGPGQTTGHPYYLRSFLVVLKTVLENEDDMLLFDEQEKGIVTKFYQLSATGQKLYVRLFQRKLSWIKMTKLEYEEIALDLTPVIEELTNAGFLQTESELQELSEVLELLSAPELKSLAKTFHLVNPNGQKQQLVDAFLKLAKQRSVCTWGKNKPGIGAVILKRAKALAGQSVRICKGPRAVFSRILLLFSLTDSMEDEDAACGGQGQLSTVLLVNLGRMEFPSYTINRKTHIFQDRDDLIRYAAATHMLSDISSAMANGNWEEAKELAQCAKRDWNRLKNHPSLRCHEDLPLFLRCFTVGWIYTRILSRFVEILQRLHMYEEAVRELESLLSQRIYCPDSRGRWWDRLALNLHQHLKRLEPTIKCITEGLADPEVRTGHRLSLYQRAVRLRESPSCKKFKHLFQQLPEMAVQDVKHVTITGRLCPQRGMCKSVFVMEAGEAADPTTVLCSVEELALAHYRRSGFDQGIHGEGSTFSTLYGLLLWDIIFMDGIPDVFRNACQAFPLDLCTDSFFTSRRPALEARLQLIHDAPEESLRAWVAATWHEQEGRVASLVSWDRFTSLQQAQDLVSCLGGPVLSGVCRHLAADFRHCRGGLPDLVVWNSQSRHFKLVEVKGPNDRLSHKQMIWLAELQKLGAEVEVCHVVAVGAKSQSLS
chain 2: MSFVAGVIRRLDETVVNRIAAGEVIQRPANAIKEMIENCLDAKSTSIQVIVKEGGLKLIQIQDNGTGIRKEDLDIVCERFTTSKLQSFEDLASISTYGFRGEALASISHVAHVTITTKTADGKCAYRASYSDGKLKAPPKPCAGNQGTQITVEDLFYNIATRRKALKNPSEEYGKILEVVGRYSVHNAGISFSVKKQGETVADVRTLPNASTVDNIRSIFGNAVSRELIEIGCEDKTLAFKMNGYISNANYSVKKCIFLLFINHRLVESTSLRKAIETVYAAYLPKNTHPFLYLSLEISPQNVDVNVHPTKHEVHFLHEESILERVQQHIESKLLGSNSSRMYFTQTLLPGLAGPSGEMVKSTTSLTSSSTSGSSDKVYAHQMVRTDSREQKLDAFLQPLSKPLSSQPQAIVTEDKTDISSGRARQQDEEMLELPAPAEVAAKNQSLEGDTTKGTSEMSEKRGPTSSNPRKRHREDSDVEMVEDDSRKEMTAACTPRRRIINLTSVLSLQEEINEQGHEVLREMLHNHSFVGCVNPQWALAQHQTKLYLLNTTKLSEELFYQILIYDFANFGVLRLSEPAPLFDLAMLALDSPESGWTEEDGPKEGLAEYIVEFLKKKAEMLADYFSLEIDEEGNLIGLPLLIDNYVPPLEGLPIFILRLATEVNWDEEKECFESLSKECAMFYSIRKQYISEESTLSGQQSEVPGSIPNSWKWTVEHIVYKALRSHILPPKHFTEDGNILQLANLPDLYKVFERC

Variants of: B1
Assay: GFP-Trap pull-down, quantified immunoblot; U2OS cell extracts; n = 5 biological replicates; parent: 100; read off a plot

| Variant | percent of parent |
| --- | --- |
| chain 1 Q123A | ~110 |
| chain 1 F129A | ~5 |
| chain 1 Y128A | ~1 |
| chain 1 S126A | ~10 |
